Variants at the floor of the assay were thinned out.
B1: TPR 5TU (parent)
chain: GGAUCUUCUCGAUCUAACAAAAAAGACAAAUCUGCCACAAAGCUUGAGAGCAUCUUCGGAUGCAGAGGCGGCAGCCUUCGGUGGCGCGAUAGCGCCAACGUUCUCAACUAUGACACGCAAAACGCGUGCUCCGUUGAAUGGAGUUUAUCAUG

Variants of: B1
Assay: polymerase ribozyme fitness, log enrichment relative to wild type (log ratio); higher = more active; in vitro selection for triplet polymerase activity
Outline: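 Each subunit of a heterodimeric triplet polymerase ribozyme was mutagenized into a library by PCR, transcribed, and subjected to one round of in vitro selection, run in triplicate. Libraries were annealed with a biotinylated primer, the partner subunit and triplets, incubated frozen at −7 °C, and extended constructs were gel-excised, captured on streptavidin beads and recovered by RT-PCR. Input and output libraries were sequenced on Illumina, keeping genotypes with ≥10 input reads and ≥1 read per output. Fitness is log base 2 of genotype enrichment divided by wild-type enrichment, from inverse-variance-weighted replicate averages.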

Q: Which “polymerase ribozyme fitness (log ratio)” value does the source give for GGAUCUUCUCGAUCUAACAAAAAAGACAAAUCUGGCACAAAGCUUGAGAGUAUCUUCGGAUGCAGAGGCGGCAGCCUUCGGUGGUGCGAUAGCGCCAACGUUCUCAACUAUGACACGCAAAACGCGUGCUCCGUUGAAGGGUGUUUAUCAUG [C35G C51U C85U U139G A142U] here?
A: Its value is no more than -4.2.

Q: With GGAUCUUCUCGAUCUAACAAAAAAGACAAAUCUGGCACCAAGCUUGAGAGCAUCUUCGGAUGCAGAGGCGGCAGCCUUCGGCGGCGCGAUAGCGCCAACGUUCUCAACUAUGACAUGCAAAACGGGUGCUCCAUUGAAUGGAGUUUAUCAUG [C35G A39C U82C C116U C125G G133A] as the variant, how does the “polymerase ribozyme fitness (log ratio)” value read?
A: The value was no more than -4.2.

Q: For GGAUCUUCUCGAUCUAACAAAAAAGACAAAUCUGACACAAAGCUUGAGAGCAUCUCCGGAUGCAGAGGCGGCAGCCUUCGGAGGCGCGAUAGCGCCAACGUUCUCAACUAUGACACGCAAAACGCGUGCUCCGUUGAAUGGAGUUUAUCAUG [C35A U56C U82A], which “polymerase ribozyme fitness (log ratio)” value is on record?
A: The value was -3.49.

Q: With GGAUCUUCUCGAUCUAACAAAAAAGACAAAUCUGACACAAAGCUUGAGAGCAUCUUCGGAAGCAGAGGCGGCAGCCUUCGGUGGCGCGAUAGCGCCAACGUUGCCAACUAUGACAUGCAAAACGCGUGCUCCGUUGAAUGGAGUUUAUCAUG [C35A U61A C103G U104C C116U] as the variant, how does the “polymerase ribozyme fitness (log ratio)” value read?
A: Its value is no more than -4.2.

Q: With GGAUCUUCUCGAUCUAACAAAAAAGACAAAUCUGGCACAAAGCUUGAGAGCAUCUUCGGAUGCAGAGGCGGCAGCCUUCGGUGGCGCGAUAGCGCCAACGUUCUCAACUAUGACGCGCAAAACGCGUGCUCCGUUGAAUGGAGUUUAUCAUG [C35G A115G] as the variant, how does the “polymerase ribozyme fitness (log ratio)” value read?
A: The value was -3.92.

Q: For GGAUCUUCUCGAUCUAACAAAAAAGACAAAUCUGGCACAAAGCUUGAGAGCAUCUUCGGAUGCAGAGGCGGCAGCCUUCGGUGGCGCGAUCGCGCCAACGUUCUCAACUAUGACACGGAAAAAGCGUGCUCCGUUGAAUGGAGUUUAUCAUG [C35G A91C C118G C123A], which “polymerase ribozyme fitness (log ratio)” value is on record?
A: Its value is no more than -4.2.

Q: Which “polymerase ribozyme fitness (log ratio)” value does the source give for GGAUCUUCUCGAUCUAACAAAAAAGACAAAUCUGACACAAAGCUUGAGAGCAUCUUCGGAUGCAGAGGCGGCAGCCUUCGGUGGCGCGAAAGCGUCAACGUACUCAACUAUGACACGCAAAACGCGUGCUCCGUUGAAUGGAGUUUAUCAUG [C35A U90A C95U U102A] here?
A: The value was no more than -4.2.

Q: Which “polymerase ribozyme fitness (log ratio)” value does the source give for GGAUCUUCUCGAUCUAACAAAAAAGACAAAUCUGACACAAAGCAUGAGAGCAUCUUCGGAUGCAGAGGCCGCAGCUUUCGGUGGCGCGAUAGCGCCAACGUUGUCAACUAUGACACGCAAAACGCGUGCUCCGUUGAAUGGAGUGUAUCAUG [C35A U44A G70C C76U C103G U145G] here?
A: Its value is no more than -4.2.

Q: For GGAUCUUCUCGAUCUAACAAAAAAGACAAAUCUGGCACAAAGCUUGAGAGCAUCUUUGGAUGCAGAGGCGGCAGCCUUCGGUGGGGCGAUAGCGCCAACGUUCUCAACUAUGACACGCAAAACGCGUGCUCCGUUGAAUGGAGUUUAUCAAG [C35G C57U C85G U151A], which “polymerase ribozyme fitness (log ratio)” value is on record?
A: Its value is no more than -4.2.

Q: With GGAUCUUCUCGAUCUAACAAAAAAGACAAAUCUGACACAAAGCUUGAGAGCAUCUUCGGAUGCAGAGGCGGCAGCCUUCGGUGGCGCGAUAGCGCCAACGUUCUCAACUAUGACACGCAAAACGCGUGCUCCGUUGAAUGGAGGUUAUCAAG [C35A U144G U151A] as the variant, how does the “polymerase ribozyme fitness (log ratio)” value read?
A: Its value is no more than -4.2.

Q: Which “polymerase ribozyme fitness (log ratio)” value does the source give for GGAUCUUCUCGAUCUAACAAAAAAGACAAAUCUGGCACAAAGCUUGAGAGGAUCUGCGGAUGCAGAGGCAGCAGCGUUCGGUGGGGCGAUAGCGCCAACGUUCUCAACUAUGACACGCAAAACGCGUGCUCCUUUGAAUGGAGUUUAUCAUG [C35G C51G U56G G70A C76G C85G G133U] here?
A: Its value is no more than -4.2.

Q: Which “polymerase ribozyme fitness (log ratio)” value does the source give for GGAUCUUCUCGAUCUAACAAAAAAGACAAAUCUGACACAAAGCUUGAGAGCAUCUUCGGAUGCAGAGGCGGCAGCCUUCGGUGGCGCGAUAGCCCCAACGUUCUCAACUAUGACACGCAAAACGCGUGCUCCGUUGAAUGGAGUUUAUCAUG [C35A G94C] here?
A: The value was -2.74.

Q: For GGAUCUUCUCGAUCUAACAAAAAAGACAAAUCUGACACAAAGCUUGAGAGCAUCUUCGGAUGCAGAGGCGGCAGCCUUCGGUGGCGCGAUAGCACCAACGUUCUCAACUAUGACACGCAAAACGCGUGCUCCGUUGAAUGGAGUUUAUCAUG [C35A G94A], which “polymerase ribozyme fitness (log ratio)” value is on record?
A: Its value is -3.56.

Q: With GGAUCUUCUCGAUCUAACAAAAAAGACAAAUCUGGCACAAAGCUUGAGAGCUACUACGGAUGCAGAGGCGGCAGCCUUCGGUGGCGCGAUAGGGCUAACGUUCUGAACUAUGACACGCAAAACGCGUGCUCCGUUGAAUGGAGUUUAUCAUA [C35G A52U U53A U56A C93G C96U C105G G152A] as the variant, how does the “polymerase ribozyme fitness (log ratio)” value read?
A: Its value is no more than -4.2.

Q: Which “polymerase ribozyme fitness (log ratio)” value does the source give for GGAUCUUCUCGAUCUAACAAAAAAGACAAAUCUGACACAAAGCUUGAGAGCAUCUUCGGAUGCAGAGGCGGCAGCCUUCGGUGGCGCGAUAGCGCCAACGCUCUCAACUAUGACACGCAAAACGCGUGCUCCGUUGAAUGGAGUUUAUCAUG [C35A U101C] here?
A: Its value is -3.87.

Q: Which “polymerase ribozyme fitness (log ratio)” value does the source give for GGAUCUUCUCGAUCUAACAAAAAAGACAAAUCUGACACAAAGCUUGAGAGCAUCUUCGGAUGCAGAGGCGGCAGCCUUCGGUCGCGCGAUAGCGCCAACGUUCUCAACUAUGACACGCAAAACGCGUGCUCCGUUGAAUGGAGUUUAUCAUG [C35A G83C] here?
A: Its value is -3.93.

Q: Which “polymerase ribozyme fitness (log ratio)” value does the source give for GGAUCUUCUCGAUCUAACAAAAAAGACAAAUCUGACACAAAGCUUGAGAGCAUCUUCGGAUGCAGAGGCGGCAGCCUUCGGUUGCGCGAUAGCGCCAACGUUCUCAACUAUGACACGCAAAACGCGUGCUCCGUUGAAUGGAGUUUAUCAUG [C35A G83U] here?
A: The value was no more than -4.2.

Q: With GGAUCUUCUCGAUCUAACAAAAAAGACAAAUCUGGCACAAAGCUUGAGAGCAUCUUCGGAUGCAGAGGCGGCAGCCUUCGGUGGCGCGCUAGCGCGAACGUUCUCAACUAUGACACGCAAAACGCGUGCUCCGUUGAAUGGAGUUUAUCAUG [C35G A89C C96G] as the variant, how does the “polymerase ribozyme fitness (log ratio)” value read?
A: Its value is -4.02.

Q: With GGAUCUUCUCGAUCUAACAAAAAAGACAAAUCUGGCACAAAGCUUGAGAGCAUCUUCGGAUGCAGAGGAGGCAGCAUUCGGUGGCGCGAUAGCGCCAACGUUCUCAACUAUGACACGGAAAACGCGCGCUCCGUUGAAUGGAGUUUAUCAUG [C35G C69A C76A C118G U127C] as the variant, how does the “polymerase ribozyme fitness (log ratio)” value read?
A: Its value is no more than -4.2.
